Assays:
[1] = biological target: T1, human plasma-derived Factor X zymogen (human, UniProt P00742 41-179; P00742 183-488); assay: apparent KD fitted from FXa generation assay
T1 construct: Plasma-derived, bought (Haematologic Technologies); also called FX; human FX
Description: The ability of the monovalent anti-FX Nanobody® (Nb) to promote FIXa-mediated FX-activation was determined in the presence of a procoagulant phospholipid membrane according to the principles described by Scheiflinger et al. (2008) J Thromb Haemost, 6:315-322. A Fab of mAb 13F62 (IgG1 isotype, variable sequences identified by SEQ ID NO:6 and 7), also found to bind the activation peptide, were included for comparison. Moreover, anti-FX antibodies as disclosed in U.S. Pat. No. 9,334,331 (J327 and L404-k in said publication), corresponding to the anti-FX arm of ACE910); and more recently in WO2018/021450 (J327 D31H and JYL280 in said publication) and WO2018/098363 (BIIB-12-917 represented by SEQ ID NO:427 and 615 in said publication) are stated to be suitable for use as part of anti-FIX/anti-FX bispecific FVIII mimetic compounds were, furthermore, included for comparison.
Each compound was tested individually in a concentration range from 0-1000 nM, 0-2000 nM, 0-4000 nM or 0-8000 nM by pre-incubation with 1-1.5 nM human plasma-derived FIXa (Haematologic Technologies Inc, USA) and 500 μM 25:75 phosphatidyl serine:phosphatidyl choline phospholipid vesicles (Haematologic Technologies Inc, USA) in assay buffer (50 mM HEPES, 100 mM NaCl, 5 mM CaCl₂, 0.1% (w/v) PEG8000, 1 mg/mL bovine serum albumin, pH 7.3) for 10 minutes. The reaction was initiated by addition of human plasma-derived FX (Haematologic Technologies Inc, USA) to a final concentration of 100 nM and a reaction volume of 50 μL. Following 20 minutes activation at room temperature while agitated (1000 RPM), the reaction was quenched by addition of 25 μL quench buffer (50 mM HEPES, 100 mM NaCl, 60 mM EDTA, 0.1% (w/v) PEG8000, 1 mg/mL bovine serum albumin, pH 7.3). The amount of FXa generated was determined by addition of 25 μL 2 mM S-2765 chromogenic substrate for FXa (Chromogenix, Sweden) and chromogenic substrate conversion was followed by measuring absorbance at 405 nm for 10 minutes in a microplate reader. The observed change in 405 nm absorbance (ΔAbs405/min) was fitted to the quadratic binding equation (eq. 1) to obtain the peak stimulatory activity and EC50.

[2] = biological target: T1, human plasma-derived Factor X zymogen; assay: cell-based or functional assay

T1 sequence (P00742 41-179, chain 1 of 2): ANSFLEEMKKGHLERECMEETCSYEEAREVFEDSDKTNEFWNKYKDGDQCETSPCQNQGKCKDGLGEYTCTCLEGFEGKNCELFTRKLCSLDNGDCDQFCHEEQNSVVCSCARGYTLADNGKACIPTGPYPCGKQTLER
T1 sequence (P00742 183-488, chain 2 of 2): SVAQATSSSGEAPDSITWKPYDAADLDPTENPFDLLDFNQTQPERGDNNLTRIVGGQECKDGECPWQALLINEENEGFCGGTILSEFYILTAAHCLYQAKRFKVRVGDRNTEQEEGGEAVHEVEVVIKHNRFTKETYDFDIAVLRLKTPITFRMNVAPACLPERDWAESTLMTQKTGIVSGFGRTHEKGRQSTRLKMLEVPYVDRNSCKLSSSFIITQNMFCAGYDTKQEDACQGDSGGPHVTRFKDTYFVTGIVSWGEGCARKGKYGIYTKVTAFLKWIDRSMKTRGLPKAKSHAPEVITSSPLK

Kd [1]: 3.1 nM
Increase in FX activation (fold) [2]: 1.5 fold
B1: Fab of mAb 13F62 (Fab, V domains shown)
VH: EVQLVESGGGQVKPGGSLRLSCAASGFTFSTSSIYWVRQAPGKGLEWVSSISSGSSYIFYADSVKGRFTISRDNAKNSLFLQMNSLRAEDTAVYYCVSGYSRLLDYWGQGTLVTVSS
VL: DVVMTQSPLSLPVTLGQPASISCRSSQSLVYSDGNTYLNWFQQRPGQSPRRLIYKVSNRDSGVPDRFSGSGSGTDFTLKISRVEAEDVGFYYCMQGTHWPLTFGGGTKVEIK
notes: Fab of an IgG1 antibody; also called Fab of 13F62

From patent US20210054097A1 (Novo Nordisk, published 2021)
